B1: Cytochrome c2, P00094 (parent)
chain: MKISLTAATVAALVLAAPAFAGDAAKGEKEFNKCKTCHSIIAPDGTEIVKGAKTGPNLYGVVGRTAGTYPEFKYKDSIVALGASGFAWTEEDIATYVKDPGAFLKEKLDDKKAKTGMAFKLAKGGEDVAAYLASVVK
B2: Triosephosphate isomerase, P00943 (parent)
chain: MRKPIIAGNWKMHKTLAEAVQFVEDVKGHVPPADEVISVVCAPFLFLDRLVQAADGTDLKIGAQTMHFADQGAYTGEVSPVMLKDLGVTYVILGHSERRQMFAETDETVNKKVLAAFTRGLIPIICCGESLEEREAGQTNAVVASQVEKALAGLTPEQVKQAVIAYEPIWAIGTGKSSTPEDANSVCGHIRSVVSRLFGPEAAEAIRIQYGGSVKPDNIRDFLAQQQIDGPLVGGASLEPASFLQLVEAGRHE
B3: Guanyl-specific ribonuclease Sa, P05798 (parent)
chain: DVSGTVCLSALPPEATDTLNLIASDGPFPYSQDGVVFQNRESVLPTQSYGYYHEYTVITPGARTRGTRRIITGEATQEDYYTGDHYATFSLIDQTC
B4: Phenylalanine--tRNA ligase, mitochondrial, O95363 (parent)
chain: MVGSALRRGAHAYVYLVSKASHISRGHQHQAWGSRPPAAECATQRAPGSVVELLGKSYPQDDHSNLTRKVLTRVGRNLHNQQHHPLWLIKERVKEHFYKQYVGRFGTPLFSVYDNLSPVVTTWQNFDSLLIPADHPSRKKGDNYYLNRTHMLRAHTSAHQWDLLHAGLDAFLVVGDVYRRDQIDSQHYPIFHQLEAVRLFSKHELFAGIKDGESLQLFEQSSRSAHKQETHTMEAVKLVEFDLKQTLTRLMAHLFGDELEIRWVDCYFPFTHPSFEMEINFHGEWLEVLGCGVMEQQLVNSAGAQDRIGWAFGLGLERLAMILYDIPDIRLFWCEDERFLKQFCVSNINQKVKFQPLSKYPAVINDISFWLPSENYAENDFYDLVRTIGGDLVEKVDLIDKFVHPKTHKTSHCYRITYRHMERTLSQREVRHIHQALQEAAVQLLGVEGRF
B5: Glutamate dehydrogenase, P96110 (parent)
chain: MPEKSLYEMAVEQFNRAASLMDLESDLAEVLRRPKRVLIVEFPVRMDDGHVEVFTGYRVQHNVARGPAKGGIRYHPDVTLDEVKALAFWMTWKTAVMNLPFGGGKGGVRVDPKKLSRNELERLSRRFFSEIQVIIGPYNDIPAPDVNTNADVMAWYMDTYSMNVGHTVLGIVTGKPVELGGSKGREEATGRGVKVCAGLAMDVLGIDPKKATVAVQGFGNVGQFAALLISQELGSKVVAVSDSRGGIYNPEGFDVEELIRYKKEHGTVVTYPKGERITNEELLELDVDILVPAALEGAIHAGNAERIKAKAVVEGANGPTTPEADEILSRRGILVVPDILANAGGVTVSYFEWVQDLQSFFWDLDQVRNALEKMMKGAFNDVMKVKEKYNVDMRTAAYILAIDRVAYATKKRGIYP

The first series covers variants of B1. The note with it: Rhodobacter capsulatus (strain ATCC BAA-309 / NBRC 16581 / SB1003); pH 7.5; 30 °C; GdnHCl; CD; Tris 20 mM; structure 1C2R; whole UniProt chain shown.
Consider MKISLTAATVAALVLAAPAFAGDAAKGEKEFNKCKTCHSIIAPDGTEIVKGAKTGANLYGVVGRTAGTYPEFKYKDSIVALGASGFAWTEEDIATYVKDPGAFLKEKLDDKKAKTGMAFKLAKGGEDVAAYLASVVK [P56A], for which the “denaturant midpoint (higher = more stable)” value was determined as 0.9 M.
The same measure, in the same setting: the value for MKISLTAATVAALVLAAPAFAGDAAKGEKEFNKCKTCHSIIAPDGTEIVKGAKTSPNLYGVVGRTAGTYPEFKYKDSIVALGASGFAWTEEDIATYVKDPGAFLKEKLDDKKAKTGMAFKLAKGGEDVAAYLASVVK [G55S] was 0.86 M.

The variants in the next series derive from B2. The note with it: Geobacillus stearothermophilus; pH 7.6; Thermal; DSC; TEA 100 mM; structure 1BTM; whole UniProt chain shown.
In the case of MRKPIIAGNWKMHGTLAEAVQFVEDVKGHVPPADEVISVVCAPFLFLDRLVQAADGTDLKIGAQTMHFADQGAYTGEVSPVMLKDLGVTYVILGHSERRQMFAETDETVNKKVLAAFTRGLIPIICCGESLEEREAGQTNAVVASQVEKALAGLTPEQVKQAVIAYEPIWAIGTGKSSTPEDANSVCGHIRSVVSRLFGPEAAEAIRIQYGGSVKPDNIRDFLAQQQIDGPLVGGASLEPASFLQLVEAGRHE [K14G], the midpoint of thermal melting (Tm) is 73 °C and the “change of melting temperature, mutant - wild type (higher = more stable)” value is -3 °C.
With MRKPIIAGNWKMNGTLAEAVQFVEDVKGHVPPADEVISVVCAPFLFLDRLVQAADGTDLKIGAQTMHFADQGAYTGEVSPVMLKDLGVTYVILGHSERRQMFAETDETVNKKVLAAFTRGLIPIICCGESLEEREAGQTNAVVASQVEKALAGLTPEQVKQAVIAYEPIWAIGTGKSSTPEDANSVCGHIRSVVSRLFGPEAAEAIRIQYGGSVKPDNIRDFLAQQQIDGPLVGGASLEPASFLQLVEAGRHE [H13N K14G], the midpoint of thermal melting (Tm) was 105 °C.

In a further series the parent is B3. The settings on record: Kitasatospora aureofaciens; pH 7; 25 °C; Thermal; CD; MOPS 30 mM; structure 1RGG; whole UniProt chain shown.
As for DVSGTVCLSALPPEATDTLNLIASHGPFPYSQDGVVFQNRESVLPTQSYGYYHEYTVITPGARTRGTRRIITGEATQEDYYTGDHYATFSLIDQTC [D25H], the “ddG of mutation (higher = less stable)” value was -0.9 kcal/mol.
Same read-out and setting: the value for DVSGTVCLSALPPEATDTLNLIASDGPFPYSQDGVVFQNRESVLPTQSYGYYHEYTVITPGARTRGTRRIITGKATQEDYYTGDHYATFSLIDQTC [E74K] was -1.1 kcal/mol; that for DVSGTVCLSALPPEATKTLNLIASDGPFPYSQDGVVFQNRESVLPTQSYGYYHEYTVITPGARTRGTRRIITGEATQEDYYTGDHYATFSLIDQTC [D17K] was 1.1 kcal/mol; that for DVSGTVCLSALPPEATDTLNLIASDGPFPYSQDGVVFQNRKSVLPTQSYGYYHEYTVITPGARTRGTRRIITGEATQEDYYTGDHYATFSLIDQTC [E41K] was 1.2 kcal/mol.

In the next series the parent is B4. The note with it: Homo sapiens; pH 7.5; 25 °C; Urea; CD; Tris-HCl 50 mM; transition: 2; structure 3CMQ; whole UniProt chain shown.
Turning to MVGSALRRGAHAYVYLVSKASHISRGHQHQAWGSRPPAAECATQRAPGSVVELLGKCYPQDDHSNLTRKVLTRVGRNLHNQQHHPLWLIKERVKEHFYKQYVGRFGTPLFSVYDNLSPVVTTWQNFDSLLIPADHPSRKKGDNYYLNRTHMLRAHTSAHQWDLLHAGLDAFLVVGDVYRRDQIDSQHYPIFHQLEAVRLFSKHELFAGIKDGESLQLFEQSSRSAHKQETHTMEAVKLVEFDLKQTLTRLMAHLFGDELEIRWVDCYFPFTHPSFEMEISFHGEWLEVLGCGVMEQQLVNSAGAQDRIGWAFGLGLERLAMILYDIPDIRLFWCEDERFLKQFCVSNINQKVKFQPLSKYPAVINDISFWLPSENYAENDFYDLVRTIGGDLVEKVDLIDKFVHPKTHKTSHCYRITYRHMERTLSQREVRHIHQALQEAAVQLLGVEGRF [S57C N280S], the “ddG of mutation (higher = less stable)” value was 3.03 kcal/mol and the “denaturant midpoint (higher = more stable)” value amounted to 7.9 M.
The like results for MVGSALRRGAHAYVYLVSKASHISRGHQHQAWGSRPPAAECATQRAPGSVVELLGKSYPQDDHSNLTRKVLTRVGRNLHNQQHHPLWLIKERVKEHFYKQYVGRFGTPLFSVYDNLSPVVTTWQNFDSLLIPADHPSRKKGDNYYLNRTHMLRAHTSAHQWDLLHAGLDAFLVVGDVYRRDQIDSQHYPIFHQLEAVRLFSKHELFAGIKDGESLQLFEQSSRSAHKQETHTMEAVKLVEFDLKQTLTRLMAHLFGDELEIRWVDCYFPFTHPSFEMEISFHGEWLEVLGCGVMEQQLVNSAGAQDRIGWAFGLGLERLAMILYDIPDIRLFWCEDERFLKQFCVSNINQKVKFQPLSKYPAVINDISFWLPSENYAENDFYDLVRTIGGDLVEKVDLIDKFVHPKTHKTSHCYRITYRHMERTLSQREVRHIHQALQEAAVQLLGVEGRF [N280S] were, in that order, -0.51 kcal/mol and 5.7 M.
The like results for MVGSALRRGAHAYVYLVSKASHISRGHQHQAWGSRPPAAECATQRAPGSVVELLGKCYPQDDHSNLTRKVLTRVGRNLHNQQHHPLWLIKERVKEHFYKQYVGRFGTPLFSVYDNLSPVVTTWQNFDSLLIPADHPSRKKGDNYYLNRTHMLRAHTSAHQWDLLHAGLDAFLVVGDVYRRDQIDSQHYPIFHQLEAVRLFSKHELFAGIKDGESLQLFEQSSRSAHKQETHTMEAVKLVEFDLKQTLTRLMAHLFGDELEIRWVDCYFPFTHPSFEMEINFHGEWLEVLGCGVMEQQLVNSAGAQDRIGWAFGLGLERLAMILYDIPDIRLFWCEDERFLKQFCVSNINQKVKFQPLSKYPAVINDISFWLPSENYAENDFYDLVRTIGGDLVEKVDLIDKFVHPKTHKTSHCYRITYRHMERTLSQREVRHIHQALQEAAVQLLGVEGRF [S57C] were, in that order, -0.43 kcal/mol and 5.9 M.

The variants in a further series derive from B5. The note with it: Thermotoga maritima (strain ATCC 43589 / DSM 3109 / JCM 10099 / NBRC 100826 / MSB8); pH 7.4; Thermal; DSC; Sodium phosphate 20 mM; reversible: no; structure 1B26; whole UniProt chain shown.
As for MPEKSLYEMAVEQFNRAASLMDLESDLAEVLRRPKRVLIVEFPVRMDDGHVEVFTGYRVQHNVARGPAKGGIRYHPDVTLDEVKALAFWMTWKTAVMNLPFGGGKGGVRVDPKKLSRNELERLSRRFFSEIQVIIGPYNDIPAPDVNTNADVMAWYMDEYSMNVGHTVLGIVTGKPVELGGSKGREEATGRGVKVCAGLAMDVLGIDPKKATVAVQGFGNVGQFAALLISQELGSKVVAVSDSRGGIYNPEGFDVEELIRYKKEHGTVVTYPKGERITNEELLELDVDILVPAALEGAIHAGNAERIKAKAVVEGANGPTTPEADEILSRRGILVVPDILANAGGVTVSYFEWVQDLQSFFWDLDQVRNALEKMMKGAFNDVMKVKEKYNVDMRTAAYILAIDRVAYATKKRGIYP [T159E], the Tm is 83.1 °C.

The values above are taken from FireProtDB.
